Experiments:
[1] = tested on: HGF-NG precursor protein (5-amino-acid-deleted-type/glycosylation-deficient human HGF with the natural α chain-β chain boundary sequence Arg489-Val490)
[2] = tested on: HGF-G2 precursor protein (HGF-NG with Arg489-Val490 converted into Tyr-His)
[3] = tested on: HGF-G1 precursor protein (HGF-NG with Leu488-Arg489 at the C-terminus of the α chain converted into His-Tyr)
[4] = tested on: HGF-G3 precursor protein (HGF-NG with Lys-Thr-Lys-Gln-Leu-Arg at 484-489 converted into Pro-Gly-Ala-Ala-His-Tyr)
Chain of HGF-G3 precursor protein (HGF-NG with Lys-Thr-Lys-Gln-Leu-Arg at 484-489 converted into Pro-Gly-Ala-Ala-His-Tyr) (chain, as listed by the source): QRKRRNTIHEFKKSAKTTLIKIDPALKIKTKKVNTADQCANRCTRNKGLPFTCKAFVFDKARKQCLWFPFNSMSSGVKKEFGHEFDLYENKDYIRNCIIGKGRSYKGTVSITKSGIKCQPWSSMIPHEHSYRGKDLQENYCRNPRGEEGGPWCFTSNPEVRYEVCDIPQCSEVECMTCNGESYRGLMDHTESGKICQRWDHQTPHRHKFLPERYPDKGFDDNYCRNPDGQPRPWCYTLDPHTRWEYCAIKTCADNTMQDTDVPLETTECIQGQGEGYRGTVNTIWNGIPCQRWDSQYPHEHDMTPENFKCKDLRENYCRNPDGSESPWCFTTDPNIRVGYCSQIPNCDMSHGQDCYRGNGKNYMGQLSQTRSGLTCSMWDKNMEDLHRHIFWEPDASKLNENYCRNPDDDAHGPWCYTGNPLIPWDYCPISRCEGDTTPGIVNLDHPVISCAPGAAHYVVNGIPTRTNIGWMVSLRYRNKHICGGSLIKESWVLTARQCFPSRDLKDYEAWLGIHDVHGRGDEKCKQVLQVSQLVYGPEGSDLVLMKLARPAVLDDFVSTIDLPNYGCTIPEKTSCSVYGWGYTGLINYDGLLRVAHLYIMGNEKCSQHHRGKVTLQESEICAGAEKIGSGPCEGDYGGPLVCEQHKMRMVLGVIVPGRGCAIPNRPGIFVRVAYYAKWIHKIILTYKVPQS

Chain of HGF-G2 precursor protein (HGF-NG with Arg489-Val490 converted into Tyr-His) (chain, as listed by the source): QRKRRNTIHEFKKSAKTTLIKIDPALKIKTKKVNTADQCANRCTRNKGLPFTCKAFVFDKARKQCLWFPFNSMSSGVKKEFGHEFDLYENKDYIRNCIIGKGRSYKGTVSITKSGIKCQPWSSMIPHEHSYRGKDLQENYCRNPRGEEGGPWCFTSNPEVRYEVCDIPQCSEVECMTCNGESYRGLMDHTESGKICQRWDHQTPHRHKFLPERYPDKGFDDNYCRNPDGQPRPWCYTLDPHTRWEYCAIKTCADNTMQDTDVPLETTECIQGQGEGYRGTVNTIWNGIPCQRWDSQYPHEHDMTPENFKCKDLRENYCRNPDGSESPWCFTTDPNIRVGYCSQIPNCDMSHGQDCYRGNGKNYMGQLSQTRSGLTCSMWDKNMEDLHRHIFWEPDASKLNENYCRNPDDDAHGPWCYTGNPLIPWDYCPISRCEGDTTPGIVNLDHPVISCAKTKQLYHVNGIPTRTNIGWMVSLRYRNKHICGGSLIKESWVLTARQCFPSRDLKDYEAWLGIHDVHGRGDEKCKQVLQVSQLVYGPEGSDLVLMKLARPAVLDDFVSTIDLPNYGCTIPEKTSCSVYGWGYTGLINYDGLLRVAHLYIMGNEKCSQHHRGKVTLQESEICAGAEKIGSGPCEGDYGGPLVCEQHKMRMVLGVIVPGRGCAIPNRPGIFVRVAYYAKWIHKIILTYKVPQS
Chain of HGF-NG precursor protein (5-amino-acid-deleted-type/glycosylation-deficient human HGF with the natural α chain-β chain boundary sequence Arg489-Val490) (chain, as listed by the source, stated change not applied): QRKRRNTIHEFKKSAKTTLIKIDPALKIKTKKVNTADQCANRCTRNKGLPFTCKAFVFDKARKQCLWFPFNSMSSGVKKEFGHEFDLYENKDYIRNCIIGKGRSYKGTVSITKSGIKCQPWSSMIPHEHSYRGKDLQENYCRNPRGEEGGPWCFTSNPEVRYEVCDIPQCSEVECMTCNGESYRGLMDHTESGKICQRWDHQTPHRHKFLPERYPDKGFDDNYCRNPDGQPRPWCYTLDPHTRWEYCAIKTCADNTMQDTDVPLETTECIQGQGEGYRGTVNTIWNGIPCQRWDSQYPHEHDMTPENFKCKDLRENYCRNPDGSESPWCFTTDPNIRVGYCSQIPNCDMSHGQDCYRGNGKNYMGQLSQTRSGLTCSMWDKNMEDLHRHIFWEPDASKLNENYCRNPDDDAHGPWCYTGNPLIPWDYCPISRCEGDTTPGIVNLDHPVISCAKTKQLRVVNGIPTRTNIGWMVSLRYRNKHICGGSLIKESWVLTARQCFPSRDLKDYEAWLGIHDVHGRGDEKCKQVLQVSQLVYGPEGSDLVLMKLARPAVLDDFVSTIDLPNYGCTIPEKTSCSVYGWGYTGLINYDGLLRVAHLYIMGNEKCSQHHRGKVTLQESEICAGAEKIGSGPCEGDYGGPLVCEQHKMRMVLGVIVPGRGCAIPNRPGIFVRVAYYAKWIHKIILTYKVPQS
Chain of HGF-G1 precursor protein (HGF-NG with Leu488-Arg489 at the C-terminus of the α chain converted into His-Tyr) (chain, as listed by the source): as the sequence (chain, as listed by the source, stated change not applied) above, with L457H, R458Y counted along it

## Genenase I (made by New England Laboratory)
[1]
  cleavage of the single-stranded precursor (western blot, reducing SDS-PAGE): HGF-NG precursor protein having a natural α chain-β chain boundary sequence was not cleaved by Genenase I
[2]
  cleavage of the single-stranded precursor into α and β chain bands (western blot, reducing SDS-PAGE): after Genenase I treatment, bands were detected at the same positions as those of the α chain and β chain of HGF-NG
[3]
  cleavage of the single-stranded precursor into α and β chain bands (western blot, reducing SDS-PAGE): after Genenase I treatment, bands were detected at the same positions as those of the α chain and β chain of HGF-NG
[4]
  cleavage of the single-stranded precursor into α and β chain bands (western blot, reducing SDS-PAGE): after Genenase I treatment, bands were detected at the same positions as those of the α chain and β chain of HGF-NG

Reference: patent US20110269944
